This passage reports pKd results from paper PMC9482650, “Quantitative fragmentomics allow affinity mapping of interactomes” (Nature Communications, 2022).

What is called pKd is the Kd on a negative log10 scale, so that one unit is a factor of ten.

The labels stand for the following.
B1: TRIM29, Q14134;Q14134-2 (peptide)
chain: KSGKQTMLVV
B2: PDLIM4_iso2, P50479;P50479-1 (peptide)
chain: VYPNAKVELV

Chain of DLG4_3, P78352 (P78352 306-403): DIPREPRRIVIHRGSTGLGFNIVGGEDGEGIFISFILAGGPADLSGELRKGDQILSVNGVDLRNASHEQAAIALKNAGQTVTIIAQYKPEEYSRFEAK
Chain of SCRIB_1, Q14160 (Q14160 718-814): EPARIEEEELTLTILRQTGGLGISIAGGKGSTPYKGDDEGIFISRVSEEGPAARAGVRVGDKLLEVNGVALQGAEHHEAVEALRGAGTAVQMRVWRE
Chain of GRID2IP_1, A4D2P6 (A4D2P6 1-87): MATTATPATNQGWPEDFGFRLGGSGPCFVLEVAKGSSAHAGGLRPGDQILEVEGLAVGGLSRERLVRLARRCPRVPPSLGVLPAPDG

The first assay deals with AHNAK1, Q09666. As to the kind of experiment: holdup assay. Further details: key: below the threshold = too weak to quantify, mostly under pKd 3.1 to 4. The settings on record: plain residues with an end cap or a label only (N-terminal biotin on a linker: ado-ado).
B1: the pKd result is “below the threshold”.

In the case of B2, the pKd result is on record as “below the threshold”.

The next assay addresses T1, APBA1_2, Q02410.
T1 sequence (Q02410 742-832, limits assumed, looked up): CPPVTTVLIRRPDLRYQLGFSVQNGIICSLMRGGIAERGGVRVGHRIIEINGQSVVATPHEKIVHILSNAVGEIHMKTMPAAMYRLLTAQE
In words: holdup assay. The settings on record: plain residues with an end cap or a label only (N-terminal biotin on a linker: ado-ado). Further details: key: below the threshold = too weak to quantify, mostly under pKd 3.1 to 4.
With B1, the pKd result is “below the threshold”.

B2 registered a pKd of 3.91.

Another assay addresses T2, CARD11, Q9BXL7.
T2 sequence (Q9BXL7 662-765, limits assumed, looked up): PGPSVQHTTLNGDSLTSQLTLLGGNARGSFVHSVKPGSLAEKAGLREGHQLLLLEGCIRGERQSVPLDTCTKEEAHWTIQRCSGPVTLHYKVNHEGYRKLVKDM
In words: holdup assay. Further details: key: below the threshold = too weak to quantify, mostly under pKd 3.1 to 4. The settings on record: plain residues with an end cap or a label only (N-terminal biotin on a linker: ado-ado).
For B1, the pKd entry is “below the threshold”.

As to B2, the pKd result is on record as “below the threshold”.

The next assay has as its target T3, DFNB31_3, Q9P202.
T3 sequence (Q9P202 811-907, limits assumed, looked up): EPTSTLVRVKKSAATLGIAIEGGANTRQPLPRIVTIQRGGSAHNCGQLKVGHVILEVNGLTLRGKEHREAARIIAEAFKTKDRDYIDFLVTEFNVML
As to the kind of experiment: holdup assay. As to conditions: plain residues with an end cap or a label only (N-terminal biotin on a linker: ado-ado). Further details: key: below the threshold = too weak to quantify, mostly under pKd 3.1 to 4.
On to B1, for which the pKd entry is on record as “below the threshold”.

In the case of B2, the pKd entry was “below the threshold”.

The next assay deals with DLG1_3, Q12959. As to the kind of experiment: holdup assay. As to conditions: plain residues with an end cap or a label only (N-terminal biotin on a linker: ado-ado). Further details: key: below the threshold = too weak to quantify, mostly under pKd 3.1 to 4.
Chain of DLG1_3, Q12959 (Q12959 457-571): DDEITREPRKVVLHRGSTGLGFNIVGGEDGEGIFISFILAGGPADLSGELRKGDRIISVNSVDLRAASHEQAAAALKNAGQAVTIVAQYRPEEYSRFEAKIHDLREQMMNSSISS
B2: the pKd result was “below the threshold”.

A further assay has as its target DLG4_3, P78352. As to the kind of experiment: holdup assay. Further details: key: below the threshold = too weak to quantify, mostly under pKd 3.1 to 4. The settings on record: plain residues with an end cap or a label only (N-terminal biotin on a linker: ado-ado).
With B1, the pKd entry is listed as “below the threshold”.

Consider B2, for which the pKd result is listed as “below the threshold”.

The target in a further assay is FRMPD3, Q5JV73. In words: holdup assay. Further details: key: below the threshold = too weak to quantify, mostly under pKd 3.1 to 4. As to conditions: plain residues with an end cap or a label only (N-terminal biotin on a linker: ado-ado).
Chain of FRMPD3, Q5JV73 (Q5JV73 12-100): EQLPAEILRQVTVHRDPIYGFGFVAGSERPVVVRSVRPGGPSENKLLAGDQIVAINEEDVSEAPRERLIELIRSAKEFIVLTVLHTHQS
For the molecule B1, the pKd entry is listed as “below the threshold”.

In the case of B2, the pKd result is recorded as “below the threshold”.

A further assay addresses GORASP2, Q9H8Y8. In words: holdup assay. Further details: key: below the threshold = too weak to quantify, mostly under pKd 3.1 to 4. As to conditions: plain residues with an end cap or a label only (N-terminal biotin on a linker: ado-ado).
Consider B1, for which the pKd is 4.6.

As for B2, the pKd was found to be 4.87.

Another assay concerns the target GRID2IP_1, A4D2P6. In words: holdup assay. Further details: key: below the threshold = too weak to quantify, mostly under pKd 3.1 to 4. As to conditions: plain residues with an end cap or a label only (N-terminal biotin on a linker: ado-ado).
As for B1, the pKd result is on record as “below the threshold”.

For the molecule B2, the pKd result is given as “below the threshold”.

Another assay has as its target T4, GRIP1_2, Q9Y3R0.
T4 sequence (Q9Y3R0 145-248, limits assumed, looked up): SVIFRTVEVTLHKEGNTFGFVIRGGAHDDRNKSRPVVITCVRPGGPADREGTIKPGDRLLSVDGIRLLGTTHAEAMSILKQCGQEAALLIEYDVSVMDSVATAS
As to the kind of experiment: holdup assay. Further details: key: below the threshold = too weak to quantify, mostly under pKd 3.1 to 4. As to conditions: plain residues with an end cap or a label only (N-terminal biotin on a linker: ado-ado).
Consider B1, for which the pKd result is listed as “below the threshold”.

Regarding B2, the pKd entry is “below the threshold”.

The target of a further assay is T5, GRIP1_3, Q9Y3R0.
T5 sequence (Q9Y3R0 247-346, limits assumed, looked up): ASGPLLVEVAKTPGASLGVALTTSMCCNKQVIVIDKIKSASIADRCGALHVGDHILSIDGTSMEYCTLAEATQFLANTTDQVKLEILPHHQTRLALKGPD
As to the kind of experiment: holdup assay. Further details: key: below the threshold = too weak to quantify, mostly under pKd 3.1 to 4. The settings on record: plain residues with an end cap or a label only (N-terminal biotin on a linker: ado-ado).
For the molecule B1, the negative logarithm of the Kd (pKd) result is “below the threshold”.

Consider B2, for which the pKd result was “below the threshold”.

The target of a further assay is T6, GRIP1_5, Q9Y3R0.
T6 sequence (Q9Y3R0 568-668, limits assumed, looked up): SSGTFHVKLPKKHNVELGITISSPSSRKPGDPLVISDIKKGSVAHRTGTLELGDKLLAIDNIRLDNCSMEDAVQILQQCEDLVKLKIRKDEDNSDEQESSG
As to the kind of experiment: holdup assay. Further details: key: below the threshold = too weak to quantify, mostly under pKd 3.1 to 4. The settings on record: plain residues with an end cap or a label only (N-terminal biotin on a linker: ado-ado).
For the molecule B1, the pKd result was “below the threshold”.

For B2, the pKd result was “below the threshold”.

Another assay deals with GRIP2_3, Q9C0E4. As to the kind of experiment: holdup assay. Further details: key: below the threshold = too weak to quantify, mostly under pKd 3.1 to 4. As to conditions: plain residues with an end cap or a label only (N-terminal biotin on a linker: ado-ado).
Chain of GRIP2_3, Q9C0E4 (Q9C0E4 238-339): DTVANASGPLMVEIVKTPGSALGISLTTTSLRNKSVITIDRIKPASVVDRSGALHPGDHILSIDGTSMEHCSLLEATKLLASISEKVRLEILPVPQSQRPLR
As to B1, the pKd result is on record as “below the threshold”.

Take B2: the pKd result is listed as “below the threshold”.

The target in the next assay is GRIP2_7, Q9C0E4. In words: holdup assay. Further details: key: below the threshold = too weak to quantify, mostly under pKd 3.1 to 4. The settings on record: plain residues with an end cap or a label only (N-terminal biotin on a linker: ado-ado).
Chain of GRIP2_7, Q9C0E4 (Q9C0E4 934-1023): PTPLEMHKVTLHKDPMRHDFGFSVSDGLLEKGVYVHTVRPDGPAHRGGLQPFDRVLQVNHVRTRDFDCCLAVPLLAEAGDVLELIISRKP
Regarding B1, the pKd result is “below the threshold”.

As for B2, the pKd result is “below the threshold”.

In another assay the target is LAP2, Q96RT1. In words: holdup assay. As to conditions: plain residues with an end cap or a label only (N-terminal biotin on a linker: ado-ado). Further details: key: below the threshold = too weak to quantify, mostly under pKd 3.1 to 4.
Chain of LAP2, Q96RT1 (Q96RT1 other isoform, or with tags, fused parts or gaps): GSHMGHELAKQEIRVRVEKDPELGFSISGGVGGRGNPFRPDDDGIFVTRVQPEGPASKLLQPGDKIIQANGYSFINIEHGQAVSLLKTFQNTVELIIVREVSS
On to B1, for which the pKd result is listed as “below the threshold”.

As for B2, the pKd result is on record as “below the threshold”.

The next assay addresses T7, LIN7C, Q9NUP9.
T7 sequence (Q9NUP9 88-185, limits assumed, looked up): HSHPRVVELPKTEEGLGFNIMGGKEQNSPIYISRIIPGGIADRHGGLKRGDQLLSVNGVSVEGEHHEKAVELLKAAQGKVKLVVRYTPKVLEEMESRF
As to the kind of experiment: holdup assay. Further details: key: below the threshold = too weak to quantify, mostly under pKd 3.1 to 4. The settings on record: plain residues with an end cap or a label only (N-terminal biotin on a linker: ado-ado).
In the case of B1, the pKd entry was “below the threshold”.

For the molecule B2, the pKd result is reported as “below the threshold”.

For another assay, the target named is MAGI2_2, Q86UL8. As to the kind of experiment: holdup assay. Further details: key: below the threshold = too weak to quantify, mostly under pKd 3.1 to 4. The settings on record: plain residues with an end cap or a label only (N-terminal biotin on a linker: ado-ado).
Chain of MAGI2_2, Q86UL8 (Q86UL8 410-522): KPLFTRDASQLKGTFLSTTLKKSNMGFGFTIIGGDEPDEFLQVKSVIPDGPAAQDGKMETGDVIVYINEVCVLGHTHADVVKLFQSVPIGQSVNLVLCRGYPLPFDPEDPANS
As for B2, the pKd result is “below the threshold”.

A further assay addresses T8, MPP7, Q5T2T1.
T8 sequence (Q5T2T1 134-230, limits assumed, looked up): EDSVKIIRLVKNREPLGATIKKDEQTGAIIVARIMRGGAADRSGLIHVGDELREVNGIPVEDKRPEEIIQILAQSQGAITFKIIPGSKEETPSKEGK
In words: holdup assay. Further details: key: below the threshold = too weak to quantify, mostly under pKd 3.1 to 4. The settings on record: plain residues with an end cap or a label only (N-terminal biotin on a linker: ado-ado).
Turning to B1, the pKd result was “below the threshold”.

As to B2, the pKd result is listed as “below the threshold”.

Another assay deals with PDZRN4_1, Q6ZMN7. As to the kind of experiment: holdup assay. Further details: key: below the threshold = too weak to quantify, mostly under pKd 3.1 to 4. As to conditions: plain residues with an end cap or a label only (N-terminal biotin on a linker: ado-ado).
Chain of PDZRN4_1, Q6ZMN7 (Q6ZMN7 213-318): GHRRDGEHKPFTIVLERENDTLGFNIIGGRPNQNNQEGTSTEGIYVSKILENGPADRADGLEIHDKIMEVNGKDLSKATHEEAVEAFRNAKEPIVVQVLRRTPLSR
Take B2: the pKd result is recorded as “below the threshold”.

A further assay has as its target SCRIB_1, Q14160. In words: holdup assay. The settings on record: plain residues with an end cap or a label only (N-terminal biotin on a linker: ado-ado). Further details: key: below the threshold = too weak to quantify, mostly under pKd 3.1 to 4.
Regarding B1, the pKd entry is “below the threshold”.

As for B2, the pKd entry is reported as “below the threshold”.

For a further assay, the target named is SCRIB_2, Q14160. As to the kind of experiment: holdup assay. The settings on record: plain residues with an end cap or a label only (N-terminal biotin on a linker: ado-ado). Further details: key: below the threshold = too weak to quantify, mostly under pKd 3.1 to 4.
Chain of SCRIB_2, Q14160 (Q14160 857-960): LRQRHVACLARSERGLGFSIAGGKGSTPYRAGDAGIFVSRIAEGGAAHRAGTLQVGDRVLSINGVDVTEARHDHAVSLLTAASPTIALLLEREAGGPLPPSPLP
Consider B1, for which the pKd result was “below the threshold”.

Consider B2, for which the pKd entry was “below the threshold”.

For a further assay, the target named is SNX27, Q96L92. As to the kind of experiment: holdup assay. Further details: key: below the threshold = too weak to quantify, mostly under pKd 3.1 to 4. As to conditions: plain residues with an end cap or a label only (N-terminal biotin on a linker: ado-ado).
On to B2, for which the pKd entry is on record as “below the threshold”.

The next assay has as its target T9, SYNJ2BP, P57105.
T9 sequence (P57105 8-110, limits assumed, looked up): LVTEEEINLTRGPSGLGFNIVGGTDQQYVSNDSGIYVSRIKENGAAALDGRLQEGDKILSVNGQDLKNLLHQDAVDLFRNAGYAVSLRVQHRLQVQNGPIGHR
As to the kind of experiment: holdup assay. As to conditions: plain residues with an end cap or a label only (N-terminal biotin on a linker: ado-ado). Further details: key: below the threshold = too weak to quantify, mostly under pKd 3.1 to 4.
Take B1: the pKd result was “below the threshold”.

With B2, the pKd entry is “below the threshold”.

The target of a further assay is TJP2_1, Q9UDY2. As to the kind of experiment: holdup assay. Further details: key: below the threshold = too weak to quantify, mostly under pKd 3.1 to 4. As to conditions: plain residues with an end cap or a label only (N-terminal biotin on a linker: ado-ado).
Chain of TJP2_1, Q9UDY2 (Q9UDY2 24-128): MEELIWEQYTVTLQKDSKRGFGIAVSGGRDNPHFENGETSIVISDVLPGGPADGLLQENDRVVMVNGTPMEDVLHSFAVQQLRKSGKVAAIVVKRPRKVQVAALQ
As for B1, the pKd entry is “below the threshold”.

In the case of B2, the pKd result is “below the threshold”.

For another assay, the target named is T10, TJP3_3, O95049.
T10 sequence (O95049 375-456, limits assumed, looked up): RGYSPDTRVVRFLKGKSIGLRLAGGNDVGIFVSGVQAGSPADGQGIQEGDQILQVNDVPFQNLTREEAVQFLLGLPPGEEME
As to the kind of experiment: holdup assay. Further details: key: below the threshold = too weak to quantify, mostly under pKd 3.1 to 4. The settings on record: plain residues with an end cap or a label only (N-terminal biotin on a linker: ado-ado).
Turning to B1, the pKd entry was “below the threshold”.

With B2, the negative-log Kd (pKd) result was “below the threshold”.
